Reference: PMC9482650, “Quantitative fragmentomics allow affinity mapping of interactomes” (Nature Communications, 2022)

T1: NHERF3_3, Q5T2W1
T1 sequence (Q5T2W1 238-333, limits assumed, looked up): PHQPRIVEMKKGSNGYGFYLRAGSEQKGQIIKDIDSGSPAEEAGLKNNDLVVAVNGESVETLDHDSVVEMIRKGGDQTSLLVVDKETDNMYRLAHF

T2: HTRA3, P83110
T2 sequence (P83110 354-453, limits assumed, looked up): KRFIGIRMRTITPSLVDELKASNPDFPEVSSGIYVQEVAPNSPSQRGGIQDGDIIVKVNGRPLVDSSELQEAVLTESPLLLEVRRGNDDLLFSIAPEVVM

T3: SNTA1, Q13424
T3 sequence (Q13424 82-180, limits assumed, looked up): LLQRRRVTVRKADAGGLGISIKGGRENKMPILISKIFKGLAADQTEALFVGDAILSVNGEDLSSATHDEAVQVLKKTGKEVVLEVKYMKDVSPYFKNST

T4: LIN7B, Q9HAP6
T4 sequence (Q9HAP6 88-185, limits assumed, looked up): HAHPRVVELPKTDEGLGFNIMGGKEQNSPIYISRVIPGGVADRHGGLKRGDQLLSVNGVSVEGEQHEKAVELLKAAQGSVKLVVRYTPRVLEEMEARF

T5: DLG3_2, Q92796
T5 sequence (Q92796 221-321, limits assumed, looked up): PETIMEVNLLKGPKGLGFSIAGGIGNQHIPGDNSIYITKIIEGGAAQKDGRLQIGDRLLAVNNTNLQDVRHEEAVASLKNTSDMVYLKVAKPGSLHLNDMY

T6: ARHGEF11, O15085
T6 sequence (O15085 42-136, limits assumed, looked up): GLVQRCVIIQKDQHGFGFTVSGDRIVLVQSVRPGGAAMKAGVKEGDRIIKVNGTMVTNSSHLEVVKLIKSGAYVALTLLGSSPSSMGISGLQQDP

T7: RHPN1, Q8TCX5
T7 sequence (Q8TCX5 508-602, limits assumed, looked up): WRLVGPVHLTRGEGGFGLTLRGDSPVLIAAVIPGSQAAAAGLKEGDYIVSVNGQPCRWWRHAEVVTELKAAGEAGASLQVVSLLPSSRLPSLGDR

T8: FRMPD1, Q5SYB0
T8 sequence (Q5SYB0 52-145, limits assumed, looked up): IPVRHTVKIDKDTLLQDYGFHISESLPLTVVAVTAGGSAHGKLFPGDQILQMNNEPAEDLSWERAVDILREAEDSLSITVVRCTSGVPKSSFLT

T9: APBA1_1, Q02410
T9 sequence (Q02410 651-752, limits assumed, looked up): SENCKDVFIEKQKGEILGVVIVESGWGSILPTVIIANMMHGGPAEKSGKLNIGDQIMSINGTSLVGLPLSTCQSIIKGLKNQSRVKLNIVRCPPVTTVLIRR


Experiments:
Test in all cases: holdup assay
Design in all cases: key: below the threshold = too weak to quantify, mostly under pKd 3.1 to 4
Settings in all cases: plain residues with an end cap or a label only (N-terminal biotin on a linker: ado-ado)
[1] = molecular target: Inadl_1, Q8NI35
Inadl_1, Q8NI35, sequence (Q8NI35 113-229): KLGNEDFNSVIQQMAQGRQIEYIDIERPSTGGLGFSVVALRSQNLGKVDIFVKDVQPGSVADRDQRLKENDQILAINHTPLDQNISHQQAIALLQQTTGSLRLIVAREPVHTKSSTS

[2] = molecular target: T1, NHERF3_3, Q5T2W1
[3] = molecular target: LNX1_3, Q8TBB1
LNX1_3, Q8TBB1, sequence (Q8TBB1 500-596): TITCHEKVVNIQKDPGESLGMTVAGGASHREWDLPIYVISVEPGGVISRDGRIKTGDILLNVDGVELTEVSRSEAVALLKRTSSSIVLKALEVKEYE

[4] = molecular target: FRMPD2_1, Q68DX3
FRMPD2_1, Q68DX3, sequence (Q68DX3 770-861): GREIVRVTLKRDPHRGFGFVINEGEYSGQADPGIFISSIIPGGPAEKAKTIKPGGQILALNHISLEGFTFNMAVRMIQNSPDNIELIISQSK

[5] = molecular target: T2, HTRA3, P83110
[6] = molecular target: LNX1_2, Q8TBB1
LNX1_2, Q8TBB1, sequence (Q8TBB1 371-470): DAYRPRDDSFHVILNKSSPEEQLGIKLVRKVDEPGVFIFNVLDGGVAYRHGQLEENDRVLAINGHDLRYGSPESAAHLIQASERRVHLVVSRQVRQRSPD

[7] = molecular target: GIPC2, Q8TF65
GIPC2, Q8TF65, sequence (Q8TF65 112-203): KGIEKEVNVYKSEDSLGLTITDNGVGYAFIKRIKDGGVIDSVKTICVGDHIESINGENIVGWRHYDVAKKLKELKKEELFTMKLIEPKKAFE

[8] = molecular target: T3, SNTA1, Q13424
[9] = molecular target: T4, LIN7B, Q9HAP6
[10] = molecular target: T5, DLG3_2, Q92796
[11] = molecular target: MAGI1_2, Q96QZ7
MAGI1_2, Q96QZ7, sequence (Q96QZ7 456-580): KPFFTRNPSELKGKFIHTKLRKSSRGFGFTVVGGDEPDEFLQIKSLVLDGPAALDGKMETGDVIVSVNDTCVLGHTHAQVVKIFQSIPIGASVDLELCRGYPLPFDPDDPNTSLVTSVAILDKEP

[12] = molecular target: NHERF4_4, Q86UT5
NHERF4_4, Q86UT5, sequence (Q86UT5 464-550): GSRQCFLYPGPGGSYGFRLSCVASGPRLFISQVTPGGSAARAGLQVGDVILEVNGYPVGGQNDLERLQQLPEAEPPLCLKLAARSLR

[13] = molecular target: GOPC, Q9HD26
[14] = molecular target: Inadl_6, Q8NI35
Inadl_6, Q8NI35, sequence (Q8NI35 1058-1167): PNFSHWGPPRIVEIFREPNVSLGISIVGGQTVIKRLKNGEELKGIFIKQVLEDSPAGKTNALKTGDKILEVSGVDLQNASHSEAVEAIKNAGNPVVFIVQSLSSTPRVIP

[15] = molecular target: T6, ARHGEF11, O15085
[16] = molecular target: GORASP1, Q9BQQ3
GORASP1, Q9BQQ3, sequence (Q9BQQ3 1-208): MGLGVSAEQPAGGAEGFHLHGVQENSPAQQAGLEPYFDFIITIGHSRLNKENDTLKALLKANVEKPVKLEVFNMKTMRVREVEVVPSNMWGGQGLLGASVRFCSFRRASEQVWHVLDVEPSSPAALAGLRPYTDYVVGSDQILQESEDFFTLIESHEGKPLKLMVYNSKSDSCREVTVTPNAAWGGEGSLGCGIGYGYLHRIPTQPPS

[17] = molecular target: Inadl_4, Q8NI35
Inadl_4, Q8NI35, sequence (Q8NI35 547-651): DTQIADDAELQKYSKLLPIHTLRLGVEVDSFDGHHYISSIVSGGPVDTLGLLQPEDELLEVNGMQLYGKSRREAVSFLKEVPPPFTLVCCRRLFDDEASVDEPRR

[18] = molecular target: MAGI2_3, Q86UL8
MAGI2_3, Q86UL8, sequence (Q86UL8 600-682): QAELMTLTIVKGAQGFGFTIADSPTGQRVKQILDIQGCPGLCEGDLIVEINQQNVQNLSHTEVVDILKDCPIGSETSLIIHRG

[19] = molecular target: Inadl_10, Q8NI35
Inadl_10, Q8NI35, sequence (Q8NI35 1673-1763): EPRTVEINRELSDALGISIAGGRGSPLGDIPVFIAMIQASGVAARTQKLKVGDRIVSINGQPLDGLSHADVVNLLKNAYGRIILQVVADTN

[20] = molecular target: T7, RHPN1, Q8TCX5
[21] = molecular target: MAGI3_2, Q5TCQ9
MAGI3_2, Q5TCQ9, sequence (Q5TCQ9 398-503): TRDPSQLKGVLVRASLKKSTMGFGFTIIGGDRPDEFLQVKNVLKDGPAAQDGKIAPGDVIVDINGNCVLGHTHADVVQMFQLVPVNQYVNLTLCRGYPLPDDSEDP

[22] = molecular target: Inadl_8, Q8NI35
Inadl_8, Q8NI35, sequence (Q8NI35 1425-1530): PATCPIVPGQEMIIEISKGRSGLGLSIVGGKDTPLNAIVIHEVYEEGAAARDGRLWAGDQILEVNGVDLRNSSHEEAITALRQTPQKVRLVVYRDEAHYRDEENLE

[23] = molecular target: DLG4_2, P78352
DLG4_2, P78352, sequence (P78352 155-259): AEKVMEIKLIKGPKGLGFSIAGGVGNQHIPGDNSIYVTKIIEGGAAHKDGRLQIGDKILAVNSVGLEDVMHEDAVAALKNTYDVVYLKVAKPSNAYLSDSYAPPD

[24] = molecular target: PARD3_3, Q8TEW0
PARD3_3, Q8TEW0, sequence (Q8TEW0 582-685): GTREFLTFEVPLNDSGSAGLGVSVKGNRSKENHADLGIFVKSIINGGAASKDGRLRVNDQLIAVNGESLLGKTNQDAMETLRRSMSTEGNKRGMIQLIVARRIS

[25] = molecular target: MAST2, Q6P0Q8
MAST2, Q6P0Q8, sequence (Q6P0Q8 1099-1202): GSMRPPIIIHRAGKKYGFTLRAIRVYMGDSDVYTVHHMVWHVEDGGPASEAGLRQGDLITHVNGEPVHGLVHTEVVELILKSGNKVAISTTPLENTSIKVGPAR

[26] = molecular target: FRMPD2_3, Q68DX3
FRMPD2_3, Q68DX3, sequence (Q68DX3 1073-1166): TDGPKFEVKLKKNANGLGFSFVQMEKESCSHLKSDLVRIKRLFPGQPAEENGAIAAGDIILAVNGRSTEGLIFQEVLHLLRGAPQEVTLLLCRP

[27] = molecular target: T8, FRMPD1, Q5SYB0
[28] = molecular target: T9, APBA1_1, Q02410

| Binder | pKd [1] | pKd [2] | pKd [3] | pKd [4] | pKd [5] | pKd [6] | pKd [7] | pKd [8] | pKd [9] | pKd [10] | pKd [11] | pKd [12] | pKd [13] | pKd [14] | pKd [15] | pKd [16] | pKd [17] | pKd [18] | pKd [19] | pKd [20] | further results |
| --- | --- | --- | --- | --- | --- | --- | --- | --- | --- | --- | --- | --- | --- | --- | --- | --- | --- | --- | --- | --- | --- |
| TPPAAKKSRI [BAZ1A, Q9NRL2] | below the threshold | below the threshold | below the threshold | below the threshold | below the threshold | below the threshold | below the threshold | below the threshold | 3.62 | below the threshold | below the threshold | below the threshold | 4.06 | below the threshold | 3.92 | below the threshold | below the threshold | below the threshold | below the threshold | 3.61 | pKd [21]: below the threshold; pKd [22]: 4.35; pKd [23]: 3.85; pKd [24]: below the threshold; pKd [25]: below the threshold; pKd [26]: below the threshold; pKd [27]: below the threshold; pKd [28]: below the threshold |
| LSEFKAMDSI [CTNNA1, P35221] | below the threshold | below the threshold | below the threshold | below the threshold | below the threshold | below the threshold | below the threshold | below the threshold | 3.74 | 3.56 | below the threshold | below the threshold | below the threshold | below the threshold | below the threshold | below the threshold | below the threshold | below the threshold | below the threshold | below the threshold | pKd [21]: below the threshold; pKd [22]: below the threshold; pKd [23]: below the threshold; pKd [24]: below the threshold; pKd [25]: below the threshold; pKd [26]: below the threshold; pKd [27]: below the threshold; pKd [28]: below the threshold |
| QHKTQLQTLI [BPIFA2, Q96DR5] | below the threshold | below the threshold | below the threshold | below the threshold | below the threshold | below the threshold | 3.49 | below the threshold | below the threshold | 4.08 | 4.32 | below the threshold | 4.01 | 3.56 | 3.7 | 3.73 | below the threshold | below the threshold | below the threshold | 4.26 | pKd [21]: 4.54; pKd [22]: 3.54; pKd [23]: 4.56; pKd [24]: 3.83; pKd [25]: 4.92; pKd [26]: below the threshold; pKd [27]: below the threshold; pKd [28]: below the threshold |
| VDSTVKVWTC [TRAF7, Q6Q0C0] | 3.67 | 3.48 | 3.8 | 4.45 | 5.13 | 5.3 | below the threshold | below the threshold | 3.64 | 4.18 | below the threshold | 3.62 | below the threshold | below the threshold | 4.21 | 4.15 | below the threshold | below the threshold | below the threshold | below the threshold | pKd [21]: below the threshold; pKd [22]: below the threshold; pKd [23]: 3.7; pKd [24]: 4.66; pKd [25]: 3.74; pKd [26]: 3.71; pKd [27]: below the threshold; pKd [28]: below the threshold |
